Source: IntAct's records for PubMed 9425168

B1: Focal adhesion kinase 1 (Gallus gallus (Chicken)), Q00944 (parent)
chain: MAAAYLDPNLNHTPSSSAKTHLGTGMERSPGAMERVLKVFHYFENSSEPTTWASIIRHGDATDVRGIIQKIVDCHKVKNVACYGLRLSHLQSEEVHWLHLDMGVSNVREKFELAHPPEEWKYELRIRYLPKGFLNQFTEDKPTLNFFYQQVKNDYMLEIADQVDQEIALKLGCLEIRRSYGEMRGNALEKKSNYEVLEKDVGLRRFFPKSLLDSVKAKTLRKLIQQTFRQFANLNREESILKFFEILSPVYRFDKECFKCALGSSWIISVELAIGPEEGISYLTDKGANPTHLADFNQVQTIQYSNSEDKDRKGMLQLKIAGAPEPLTVTAPSLTIAENMADLIDGYCRLVNGATQSFIIRPQKEGERALPSIPKLANNEKQGVRSHTVSVSETDDYAEIIDEEDTYTMPSTRDYEIQRERIELGRCIGEGQFGDVHQGIYMSPENPAMAVAIKTCKNCTSDSVREKFLQEALTMRQFDHPHIVKLIGVITENPVWIIMELCTLGELRSFLQVRKFSLDLASLILYAYQLSTALAYLESKRFVHRDIAARNVLVSATDCVKLGDFGLSRYMEDSTYYKASKGKLPIKWMAPESINFRRFTSASDVWMFGVCMWEILMHGVKPFQGVKNNDVIGRIENGERLPMPPNCPPTLYSLMTKCWAYDPSRRPRFTELKAQLSTILEEEKLQQEERMRMESRRQVTVSWDSGGSDEAPPKPSRPGYPSPRSSEGFYPSPQHMVQPNHYQVSGYSGSHGIPAMAGSIYPGQASLLDQTDSWNHRPQEVSAWQPNMEDSGTLDVRGMGQVLPTHLMEERLIRQQQEMEEDQRWLEKEERFLVMKPDVRLSRGSIEREDGGLQGPAGNQHIYQPVGKPDHAAPPKKPPRPGAPHLGSLASLNSPVDSYNEGVKIKPQEISPPPTANLDRSNDKVYENVTGLVKAVIEMSSKIQPAPPEEYVPMVKEVGLALRTLLATVDESLPVLPASTHREIEMAQKLLNSDLAELINKMKLAQQYVMTSLQQEYKKQMLTAAHALAVDAKNLLDVIDQARLKMISQSRPH

Variants of: B1
Conditions: with src_chick SRC

Variant | effect of a mutation on the interaction
Y397F | disrupting interaction

Variants of: B1
Conditions: with Src

Variant | effect of a mutation on the interaction
Y397F | decreasing interaction
